± gives the uncertainty stated by the source.
Experiment: self-splicing fitness, log relative to wild type (ln ratio); higher = more splicing; Tetrahymena group I intron in knt gene, E. coli kanamycin selection, DiMSum; sequences stand for … in CUCUCU…GGAGGGAAAAGUUAUCAGGCAUGCACCUGGUAGCUAGUCUUUAAACCAAUAGAUUGCAUCGGUUUAAAAGGCAAGACCGUCAAAUUGCGGGAAAGGGGUCAACAGCCGUUCAGUACCAAGUCUCAGGGGAAACUUUGAGAUGGCCUUGCAAAGGGUAUGGUAAUAAGCUGACGGACAUGGUCCUAACCACGCAGCCAAGUCCUAAGUCAACAGAUCUUCUGUUGAUAUGGAUGCAGUUCACAGACUAAAUGUCGGUCGGGGAAGAUGUAUUCUUCUCAUAAGAUAUAGUCGGACCUCUCCUUAAUGGGAGCUAGCGGAUGAAGUGAUGCAACACUGGAGCCGCUGGGAACUAAUUUGUAUGCGAAAGUAUAUUGAUUAGUUUUGGAGUACUCGUGGUCG
Procedure, shortened: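 DiMSum derived fitness as the error-weighted combination of fold changes across replicates, kanamycin versus no kanamycin, normalised to wild type. E. coli BL21(DE3) held the library, which randomised all eight P1ex-region intron nucleotides within the knt kanamycin-resistance gene on pET-22b(+). Six replicate transformations grew overnight at 37°C or 30°C on LB agar with or without 25 μg/mL kanamycin, also containing 100 μg/mL carbenicillin, 50 μM IPTG and 0.2% rhamnose, and pooled colonies were amplicon-sequenced on an Illumina HiSeq 2500.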

Row | Sequence | self-splicing fitness (ln) (30 °C) | self-splicing fitness (ln) (37 °C)
1 | CUUAAGCAAUAUUACGUUUA | -2.81 ± 0.18 | -2.6 ± 0.24
2 | AUCCAGCAAUAUUACGCUUC | -3.58 ± 0.16 | -2.15 ± 0.15
3 | AUGAAGCAAUAUUACGAGAU | -2.93 ± 0.21 | -1.28 ± 0.21
4 | UUAAAGCAAUAUUACGAAGG | -0.779 ± 0.14 | -1.09 ± 0.18
5 | GACGAGCAAUAUUACGUUGC | -4.31 ± 0.3 | -2.48 ± 0.24
6 | CGCGAGCAAUAUUACGACUG | 0.265 ± 0.17 | 0.0174 ± 0.17
7 | GUUUAGCAAUAUUACGCGAA | -3.53 ± 0.49 | -2.01 ± 0.22
8 | AUGCAGCAAUAUUACGUGGA | -3.1 ± 0.29 | -1.73 ± 0.18
9 | AUCGAGCAAUAUUACGUAGU | -3.47 ± 0.14 | -1.96 ± 0.15
10 | UAGUAGCAAUAUUACGUUGA | -2.34 ± 0.13 | -1.54 ± 0.12
11 | CUAUAGCAAUAUUACGUGUA | -2.77 ± 0.33 | -2.55 ± 0.26
12 | AUACAGCAAUAUUACGUGAU | -2.14 ± 0.084 | -0.569 ± 0.089
13 | GAUAAGCAAUAUUACGUCCU | -0.907 ± 0.14 | -0.0126 ± 0.19
14 | UGACAGCAAUAUUACGCGCC | -1.63 ± 0.12 | -0.153 ± 0.15
15 | UAAGAGCAAUAUUACGACGU | -2.32 ± 0.33 | -1.88 ± 0.39
16 | CAUAAGCAAUAUUACGCCUG | -2.54 ± 0.22 | -1.39 ± 0.17
17 | CCCUAGCAAUAUUACGAGGU | -3.87 ± 0.16 | -0.753 ± 0.1
18 | CCCCAGCAAUAUUACGACAC | -3.97 ± 0.43 | -2.41 ± 0.36
19 | UUUAAGCAAUAUUACGCAGC | -2.88 ± 0.22 | -0.593 ± 0.2
20 | CCAAAGCAAUAUUACGCCCA | -2.49 ± 0.33 | -2.72 ± 0.34
21 | CACUAGCAAUAUUACGCUUA | -2.65 ± 0.21 | -1.2 ± 0.13
22 | AUCCAGCAAUAUUACGACUC | -0.847 ± 0.071 | 0.244 ± 0.1
23 | GAUGAGCAAUAUUACGUAUG |  | -1.59 ± 0.14
24 | UCGAAGCAAUAUUACGACGU | -0.755 ± 0.1 | -0.205 ± 0.099

Row | Sequence | self-splicing fitness (ln) (30 °C) | self-splicing fitness (ln) (37 °C)
25 | UUCGAGCAAUAUUACGACAA | -0.778 ± 0.23 | 0.45 ± 0.23
26 | GGGUAGCAAUAUUACGUUGC | -3.63 ± 0.33 | -0.334 ± 0.22
27 | GUCUAGCAAUAUUACGGGGG | -2.58 ± 0.33 | -1.46 ± 0.17
28 | UCUGAGCAAUAUUACGUAUC | -3.62 ± 0.25 | -1.69 ± 0.25
29 | CGGAAGCAAUAUUACGUGUU | -3.75 ± 0.17 | -2.43 ± 0.17
30 | GAUCAGCAAUAUUACGGCAC | -0.826 ± 0.099 | 0.413 ± 0.17
31 | GGGGAGCAAUAUUACGUGUC | -3.68 ± 0.33 | -2.19 ± 0.18
32 | UACUAGCAAUAUUACGACUA | 0.113 ± 0.097 | 0.792 ± 0.11
33 | UCAUAGCAAUAUUACGUUGU | -4.35 ± 0.23 | -2.77 ± 0.21
34 | ACUAAGCAAUAUUACGCUUG | -3.11 ± 0.21 | -2.1 ± 0.19
35 | UGCAAGCAAUAUUACGACCC | -2.05 ± 0.49 | 0.223 ± 0.43
36 | AUCGAGCAAUAUUACGACGU | -0.331 ± 0.096 | 0.0461 ± 0.12
37 | CCGGAGCAAUAUUACGGGGA | -2.97 ± 0.2 | -2.73 ± 0.3
38 | UAUUAGCAAUAUUACGACCA | -0.42 ± 0.18 | -0.894 ± 0.19
39 | UUGCAGCAAUAUUACGUGCU | -3.19 ± 0.22 | -1.84 ± 0.22
40 | ACGUAGCAAUAUUACGCAUC | -3.3 ± 0.22 | -0.518 ± 0.29
41 | UGCAAGCAAUAUUACGUAGA | -1.35 ± 0.072 | -0.944 ± 0.1
42 | UCAGAGCAAUAUUACGCCGU |  | -3.02 ± 0.43
43 | CAGCAGCAAUAUUACGCUUC | -3.43 ± 0.19 | -2.63 ± 0.28
44 | CAAUAGCAAUAUUACGAGAA | -3.83 ± 0.39 | -2.71 ± 0.3
45 | AGGCAGCAAUAUUACGAUCA | -0.829 ± 0.13 | -0.234 ± 0.15
46 | CGUGAGCAAUAUUACGGGUG | -0.878 ± 0.067 | -0.658 ± 0.078
47 | AUGAAGCAAUAUUACGUCAG | -0.198 ± 0.057 | 0.134 ± 0.073
48 | CAAGAGCAAUAUUACGGAGG | -1.85 ± 0.083 | -1.3 ± 0.13

From the supplement of paper PMC7877785
